Measurements taken from PMC4914250.

Columns and labels:
WT p53 DBD = WT p53 DBD (UniProt P04637 94-293); assay: pull-down (streptavidin beads, Western blot); DBD pull-down: streptavidin beads with biotinylated oligo, 3 h at 4 C; Figure 1A: 50 ng protein; buffer, salt and pH not in the material; ELISA per R&D kit; conditions: protein: recombinant; label: 5' biotin; annealed to complementary oligo
[1] = biological target: WT p53 full length (His-tagged) (UniProt P04637 1-393); assay: as above; conditions: protein: recombinant; tags: His; label: 5' biotin; annealed to complementary oligo
Sequence of WT p53 full length (His-tagged) (P04637 whole entry): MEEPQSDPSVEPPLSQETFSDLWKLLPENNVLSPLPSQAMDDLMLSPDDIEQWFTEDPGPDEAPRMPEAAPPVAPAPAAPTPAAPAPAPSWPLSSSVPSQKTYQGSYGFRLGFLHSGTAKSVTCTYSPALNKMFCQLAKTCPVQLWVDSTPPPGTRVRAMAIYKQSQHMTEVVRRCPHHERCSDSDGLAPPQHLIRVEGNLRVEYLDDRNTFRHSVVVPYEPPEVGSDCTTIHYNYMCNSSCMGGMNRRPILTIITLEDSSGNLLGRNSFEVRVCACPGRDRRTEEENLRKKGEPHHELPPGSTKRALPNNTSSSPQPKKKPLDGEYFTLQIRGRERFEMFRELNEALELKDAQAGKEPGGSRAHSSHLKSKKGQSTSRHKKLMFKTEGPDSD

Sequence of WT p53 DBD (P04637 94-293): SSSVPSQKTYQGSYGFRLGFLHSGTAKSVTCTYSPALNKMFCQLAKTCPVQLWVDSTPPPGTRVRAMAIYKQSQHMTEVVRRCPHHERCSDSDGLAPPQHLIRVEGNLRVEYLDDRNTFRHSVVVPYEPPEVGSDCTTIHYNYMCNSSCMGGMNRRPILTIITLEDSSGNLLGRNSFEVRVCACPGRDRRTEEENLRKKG

B1: p53RE oligo (dsDNA)
DNA 1: CTGCTGAAGCTTCGAATTCCTAGACATGCCCAGACATGTCCTACTGCTGCTGCTGCTGCTGCTGCGAACATGTCCCAACATGTTGCTGCTGCTGCTGCTG
DNA 2: CAGCAGCAGCAGCAGCAACATGTTGGGACATGTTCGCAGCAGCAGCAGCAGCAGCAGTAGGACATGTCTGGGCATGTCTAGGAATTCGAAGCTTCAGCAG
Question: Does B1 bind (WT p53 DBD)?
Answer: Result: binds

Question: Does B1 bind [1]?
Answer: Result: binds
